The source of these data is patent publication US20230078601A1 (CLEVELAND CLINIC FOUNDATION, published 2023).

The test deals with T1, rβ-Casein (mouse, UniProt P10598).
T1 construct: recombinant; also called recombinant mouse β-casein; recombinant β-casein
Nature of the test: competitive ELISA: 4D12G1 pre-incubated with rising rβ-casein, then added to plates coated with rhAMHR2-ED. As for the experimental part:
The specificity of the mAbs was determined by competitive ELISA. Briefly, mAbs were incubated with increasing concentrations of rhAMHR2-ED in liquid phase PBS containing 0.02% Tween-20 (Bio-Rad) for 24 hours at 4° C. The antigen-antibody mixtures were added to the 96-well Maxisorp microtiter plates (Corning Life Sciences, Tewksbury, Mass.) pre-coated with 4 μg/ml rhAMHR2-ED followed by blocking with 1% BSA (Sigma-Aldrich). Recombinant mouse β-casein was used as the specificity control. Wells were then incubated with a secondary anti-mouse IgG conjugated with horseradish peroxidase (HRP; MilliporeSigma, Burlington, Mass.) followed by addition of 2,2′-Azino-bis(3-ethylbenzothiazoline-6-sulfonic acid) diammonium salt (ABTS) substrate (Sigma-Aldrich). Optical density was determined by absorbance at 405 nm.
Background: In an ELISA, binding on a coated surface is turned into a signal by an enzyme label.

T1 sequence (P10598 16-231 limits assumed): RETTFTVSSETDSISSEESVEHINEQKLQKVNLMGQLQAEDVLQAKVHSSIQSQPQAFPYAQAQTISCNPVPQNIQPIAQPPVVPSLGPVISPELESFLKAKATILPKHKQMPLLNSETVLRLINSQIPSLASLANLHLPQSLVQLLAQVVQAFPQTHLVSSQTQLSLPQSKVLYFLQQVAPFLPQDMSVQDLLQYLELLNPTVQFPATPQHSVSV

B1: 4D12G1 mAb (antibody, IgG1, V domains shown)
VH: DVKLVESGGGLVKLGGSLKLSCAASGFTFSRYFMSWVRQTPEKRLELVAAINSDGGRTYYPDTVKGRFTISRDNAKNTLYLQMSSLKSEDTALYYCTRHIYSYYEDYFDYWGQGTTLTVSS
VL: DVVMTQTPLSLPVSLGDQASISCRSSQSLVHSNGNTYLHWYLQKPGQSPKLLIYKVSKRFSGVPDRFSGSGSGTDFTLKISRVEAEDLGVYFCSQSTHVYTFGGGTKLEIK
notes: also called 4D12G1 IgG1 mAb
As for B1, the binding result is given as “no binding (tested: 100 µg/ml)”.
